Measured values as given in patent publication US9777041B2, “Protein nanofibers from self-assembling pentamers” (New York University, priority 2013, dated 2017).
Several values for one entry are separate records, joined by “and”; a condition that tells them apart may be missing. Equal entries are not always repeated.

Columns and labels:
Zeta potential = format: physicochemical; conditions: 10 μM protein, pH 4
Experimental: Zeta potential: Zeta potential measurements were performed on a Zetasizer Nano Series model Nano Z590. 50 mM phosphate buffer at pH 4 was used to saturate the clear polycarbonate disposable zeta cell DTS1060C prior to injecting 750 μL protein samples at protein concentrations of 10 μM. The following settings were used for zeta potential measurements in the DTS (Nano) software: […] instrument settings, Smoluvchoski model, material protein, dispersant PBS, temperature of 25° C., viscosity 1.0200 cP, and dielectric constant of […]. Measurements were taken in triplicates, conducting 10 runs for each measurement, with a delay time of 2 seconds between each measurement.

[1] = Transmission electron microscopy of protein fibers; format: physicochemical; conditions: pH 4, 50 mM PB
Experimental: Transmission electron microscopy: A JEOL JEM-1400 transmission electron microscope (TEM) was used to study the supramolecular protein structure. […] After 1 minute, the grids were blotted using filter paper and rinsed with 3-4 drops Milli Q water to remove excess salts from the buffer. After blotting with filter paper, the sample was negatively stained by adding 3 μL of 1% filtered uranyl acetate, blotted using filter paper, and dried at room temperature for 10-15 minutes. ImageJ software was used to measure the fibers dimensions.

[2] = Circular dichroism thermal melts at 222 nm, van't Hoff analysis; format: physicochemical; conditions: for Tm: 10 μM protein; for ΔG° (free energy of folding): at 25° C.; for ΔS°: ΔS° = ΔH°/Tm
Experimental: (§1) Circular dichroism: Circular dichroism (CD) measurements were conducted on a Jasco J-815 CD spectrometer. Wavelength and temperature scans were conducted with 10 μM (6.3×10^−2 mg/mL) protein concentrations. The wavelength spectrum was measured over a range from 190 to 250 nm with a step size of 1 nm Mean residue ellipticity (MRE) was calculated from raw data according to the procedure described in Gunasekar et al. 2009. Secondary structure analysis of α-helical, β-sheet, and random coil content was calculated with the K2D method using DichroWeb software. Temperature scans of each protein were performed over a range of 20-85° C. with a temperature step of 1° C./min at 222 nm. Scans were also performed at of 2° C./min and 5° C./min to evaluate dependence of thermal melt signatures on scan speed. All measurements were made in duplicates of independently prepared proteins and data represents the average. Thermodynamic properties of wt and Q were determined through analysis of thermal melts. A two-state model was used, where assumptions included monophasic behavior and reversible melting behavior. These assumptions were confirmed experimentally by melting (from 20 to 85° C.) and cooling (from 85 to 20° C.) the proteins. Calculation of thermodynamic parameters including Tm, ΔG°, ΔH°, and ΔS° were performed according to the method described by Greenfield.
Thermodynamic properties were assessed via thermal melt of the proteins at 222 nm. Prior to calculating thermodynamic constants, assumptions of monophasic behavior and melt reversibility were confirmed experimentally for wt and Q at all pHs by melting and cooling proteins (FIGS. 18a-18d). The van't Hoff equation was applied to thermal melts of the proteins in the range of 20-85° C.

[3] = Circular dichroism wavelength scans (secondary structure); format: physicochemical; conditions: for −θ222 × 10^3 / −θmin × 10^3: 10 μM protein; for random coil / α helices / β sheet: CD, K2D method
Experimental: as §1
To assess the secondary structure of the proteins under acidic as well as neutral and basic conditions in solution, CD measurements were performed. […] The presence of residue P28 towards the center of Q may have influenced the secondary structure, showing decreased helical content when compared to wt at pH 4 and 10 (FIG. 16). The negative control, L, was completely unstructured, devoid of helical content at pH 4 (FIG. 11). […] As the pH increased, the helical content of soluble Q protein increased.
Mean residual ellipticities from circular dichroism measurements at pH 4, 8, and 10 for wt, L, and Q. The data presented in Table 5 represents the average and standard deviation of at least two replicates.

[4] = Confocal microscopy of protein fibers in the presence of curcumin; format: physicochemical
Experimental: FIGS. 7a-7c show confocal microscopy of CC, Q54, and COMPcc^S wt, in the presence of curcumin. The mixture of protein to curcumin were all at a ratio of 1:5. […] All different proteins are in 50 mM phosphate buffer, pH 4. Protein and curcumin samples were combined and incubated for 12 hours prior to imaging. […] The width of COMPcc^S wt shown in FIG. 7c was determined to be 12.72 μm. […] Overall, Q54 fibers appeared to be more uniform in width, as well as more robust and consistent in fiber formation.
Confocal microscopy: Samples were imaged using a Leica TCS SP2 AOBS confocal microscope system equipped with argon ion and HeNe lasers. A 63×/1.4 NA oil-immersion objective was used for all of the images. Lab-Tek II chambered #1.5 German coverglass system was used as the imaging slide. Curcumin was excited using the 458 nm line of the argon laser, and images were taken with the detection window set between 465 and 560 nm. The pinhole aperture was set at an Airy value of 1.0, which was equivalent to sampling an ˜500 nm vertical z slice of the fiber, as estimated by the axial resolution, rz,confocal≈1.4λcm n/NA^2 (NA, numerical aperture; n, refractive index; λcm, emission wavelength (525 nm)). Interference contrast images were obtained using the Leica tube optics HC 1×/B apparatus with a focusing Bertrand lens. The 3D reconstructions were constructed using ImageJ 64 1.43 in concert with Amira 5.43, employing the Volren 3D rendering routine.

[5] = Curcumin binding fluorescence; conditions: in the presence of Zn^2+
Text: FIG. 40. Fluorescence of C and Q or with incorporated trifluoroleucine/TFL (C TFL and Q TFL) in the presence of no metal, Ni (II), or Zn (II) and curcumin. An increase in fluorescence indicates structural stability of the protein as it is able to bind with curcumin, the fluorescent probe in this case.

In the case of “Q: Q54 protein, SEQ ID NO:2, variant of COMPcc; coiled-coil that self-assembles into homopentamers and nanofibers (MRGSHHHHHHGSIEGRVKEITFLKNTAPQMLRELQETNAALQDVRELLRQQSKL)”, the zeta potential (Zeta potential; absence of curcumin) is reported as 19.1±2.5 mV, the “zeta potential, maximum value” (Zeta potential; curcumin concentration of 40 μM) is reported as 25.2±0.8 mV and the “fiber formation seen by TEM” value [1] is reported as “regularly forms fibers with high levels of structure”. The protofibril diameters [1] was 3.5±0.5 nm, the fiber diameters ([1]; listed as Q54) was 50-100 nm and the protofibril diameters ([1]; listed as Q54) was 3-4 nm. For the same substance, the “melting temperatures (Tm)” value ([2]; across all pH values (4, 8, 10)) was 46.4-63.5 °C, the “increase in Tm compared to the parent wt” value ([2]; pH 4) was 7.2 °C and the “ΔH° (van't Hoff enthalpy)” value ([2]; pH 4) was -32.3 kcal/mol. The Tm ([2]; pH 4) was 55.3 °C, the “ΔG° (free energy of folding)” value ([2]; pH 4) was -3.3 kcal/mol and the ΔS° ([2]; pH 4) was -97.1 cal/(mol·K). For the same substance, the “increase in Tm compared to the parent wt” value ([2]; pH 8) was 14.7 °C, the “ΔH° (van't Hoff enthalpy)” value ([2]; pH 8) was -32.6 kcal/mol and the Tm ([2]; pH 8) was 63.5 °C. For the same substance, the “ΔG° (free energy of folding)” value ([2]; pH 8) was -3.8 kcal/mol, the ΔS° ([2]; pH 8) was -96.8 cal/(mol·K) and the “ΔH° (van't Hoff enthalpy)” value ([2]; pH 10) was -46.4 kcal/mol. For the same substance, the Tm ([2]; pH 10) was 46.4 °C, the “ΔG° (free energy of folding)” value ([2]; pH 10) was -3.1 kcal/mol and the ΔS° ([2]; pH 10) was -145 cal/(mol·K). The “double minimum, ellipticity at 206 nm” value ([3]; 206 nm, pH 4 (Table 5)) was −6.54×10^3 deg cm^2 dmol^−1, the “double minimum, ellipticity at 222 nm” value ([3]; 222 nm, pH 4 (Table 5)) was −3.71×10^3 deg cm^2 dmol^−1 and the “−θ222 × 10^3” value ([3]; pH 4) was 3.71 10^3 deg cm^2 dmol^-1. The “−θmin × 10^3” value ([3]; pH 4) was 6.54 10^3 deg cm^2 dmol^-1, the random coil ([3]; pH 4) was 55% and the α helices ([3]; pH 4) was 9%. The β sheet ([3]; pH 4) was 36%, the “−θ222 × 10^3” value ([3]; pH 8) was 6.63 10^3 deg cm^2 dmol^-1 and the “−θmin × 10^3” value ([3]; pH 8) was 7.79 10^3 deg cm^2 dmol^-1. It also gave a random coil ([3]; pH 8) of 57%, a α helices ([3]; pH 8) of 22% and a β sheet ([3]; pH 8) of 21%. The “−θ222 × 10^3” value ([3]; pH 10) was 6.76 10^3 deg cm^2 dmol^-1, the “−θmin × 10^3” value ([3]; pH 10) was 8.07 10^3 deg cm^2 dmol^-1 and the random coil ([3]; pH 10) was 57%. For the same substance, the α helices ([3]; pH 10) was 25%, the β sheet ([3]; pH 10) was 18% and the microfiber diameter ([4]; in the presence of curcumin (10 μM Q, 50 μM curcumin), pH 4) was 16 μm and 16.0±5.6 μm. For the same substance, the “average width of protein fibers” value ([4]; protein:curcumin 1:5, 20 mM protein, 100 mM curcumin, 50 mM phosphate buffer pH 4, 12 hours) was 16.87±9 μm and the “binding to small molecule (curcumin fluorescence)” value [5] was “substantially increase the binding to small molecule”.
